Laboratory results taken from publication PMC5603801.

Target: PnpM-His6 (C-terminal His-tagged PnpM, LysR-type transcriptional regulator of Pseudomonas sp. strain WBC-3) (Pseudomonas sp. strain WBC-3)
Assay: SEC; analytical gel filtration of PnpM-His6 on Hiload Superdex 200 pg (1.6 x 60 cm); 10 mM Tris-HCl pH 7.5, 0.1 M NaCl, 5% glycerol; 0.5 ml/min; buffer with or without PNP; native mass from a calibration curve of standard proteins

- stoichiometry N: 4
Substance: PnpM-His6 (C-terminal His-tagged PnpM, LysR-type transcriptional regulator of Pseudomonas sp. strain WBC-3) (natural protein)
